Experimental data: the supplement of paper PMC10065799, “High-throughput profiling of sequence recognition by tyrosine kinases and SH2 domains using bacterial peptide display” (eLife, 2023)

How the values were obtained:
Fes = Fes (UniProt P07332); experiment: phosphorylation enrichment, bacterial display (enrichment ratio); higher = better substrate or ligand; peptides without Tyr show the background
Jak2 = Jak2 (UniProt O60674); experiment: as above
c-Src = experiment: as above
Fyn = Fyn (UniProt P06241); experiment: as above
FGFR3 = FGFR3 (UniProt P22607); experiment: as above
c-Abl (mouse) = experiment: as above
EPHB1 = EPHB1 (UniProt P54762); experiment: as above
FGFR1 = FGFR1 (UniProt P11362); experiment: as above
Hck = Hck (UniProt P08631); experiment: as above
AncSZ = experiment: as above
EPHB2 = EPHB2 (UniProt P29323); experiment: as above
MERTK = MERTK (UniProt Q12866); experiment: as above
Fer (mouse) = experiment: as above
c-Src SH2 = experiment: SH2 binding enrichment of the phosphorylated peptide, bacterial display (enrichment ratio); higher = better substrate or ligand; peptides without Tyr show the background
SHP2-C SH2 = experiment: as above
Grb2 SH2 = Grb2 SH2 (UniProt P62993); experiment: as above
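Throughout, for SH2 binding enrichment of the phosphorylated peptide, bacterial display: peptide library displayed on the E. coli surface as eCPX fusions, selected cells deep-sequenced, score is each peptide's frequency after selection divided by its frequency in the input.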
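Throughout, for phosphorylation enrichment, bacterial display: 11-residue human phosphosite peptides and single-mutation variants displayed on the E. coli surface, counted by deep sequencing, each peptide's frequency after selection divided by its frequency in the unselected input library; frequency after pTyr selection over input frequency; kinase dosed for 20-30% of maximal phosphorylation in three min.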

FGFR3, sequence (P22607 whole entry, looked up): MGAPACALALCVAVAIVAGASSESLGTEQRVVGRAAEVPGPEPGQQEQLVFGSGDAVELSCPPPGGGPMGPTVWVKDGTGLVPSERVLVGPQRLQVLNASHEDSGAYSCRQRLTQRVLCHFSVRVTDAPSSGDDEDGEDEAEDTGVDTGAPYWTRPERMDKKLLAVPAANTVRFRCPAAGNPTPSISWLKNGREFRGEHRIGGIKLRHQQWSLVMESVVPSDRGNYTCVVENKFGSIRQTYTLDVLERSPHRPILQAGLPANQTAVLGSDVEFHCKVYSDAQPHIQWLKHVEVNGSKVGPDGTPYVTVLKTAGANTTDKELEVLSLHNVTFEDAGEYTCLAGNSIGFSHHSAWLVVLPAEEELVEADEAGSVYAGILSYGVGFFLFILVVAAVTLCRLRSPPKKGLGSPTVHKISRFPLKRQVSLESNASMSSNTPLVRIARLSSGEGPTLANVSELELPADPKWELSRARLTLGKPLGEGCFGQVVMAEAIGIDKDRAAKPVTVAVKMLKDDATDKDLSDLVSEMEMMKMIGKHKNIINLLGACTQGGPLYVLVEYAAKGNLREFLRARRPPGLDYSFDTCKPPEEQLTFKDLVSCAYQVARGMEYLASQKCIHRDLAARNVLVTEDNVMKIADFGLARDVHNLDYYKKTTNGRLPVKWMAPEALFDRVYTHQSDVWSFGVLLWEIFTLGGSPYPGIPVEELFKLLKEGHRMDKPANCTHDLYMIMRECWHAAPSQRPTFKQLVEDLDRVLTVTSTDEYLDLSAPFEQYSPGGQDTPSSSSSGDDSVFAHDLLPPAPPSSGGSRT
Fyn, sequence (P06241 whole entry, looked up): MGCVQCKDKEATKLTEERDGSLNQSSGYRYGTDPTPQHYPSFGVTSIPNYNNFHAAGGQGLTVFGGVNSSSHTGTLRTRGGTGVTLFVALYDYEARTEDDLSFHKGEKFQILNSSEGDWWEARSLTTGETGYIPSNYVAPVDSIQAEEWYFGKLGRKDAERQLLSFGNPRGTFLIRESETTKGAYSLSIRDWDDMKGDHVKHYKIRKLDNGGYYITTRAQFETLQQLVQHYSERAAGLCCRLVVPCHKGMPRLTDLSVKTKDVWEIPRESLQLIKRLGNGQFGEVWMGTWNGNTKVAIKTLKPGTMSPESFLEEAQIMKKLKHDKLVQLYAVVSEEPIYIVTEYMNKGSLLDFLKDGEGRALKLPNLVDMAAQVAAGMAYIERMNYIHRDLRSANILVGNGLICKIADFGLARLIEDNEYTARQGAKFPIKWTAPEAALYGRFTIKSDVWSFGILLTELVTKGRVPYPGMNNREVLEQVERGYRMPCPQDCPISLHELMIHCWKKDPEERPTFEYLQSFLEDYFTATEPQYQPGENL
Jak2, sequence (O60674 whole entry, looked up): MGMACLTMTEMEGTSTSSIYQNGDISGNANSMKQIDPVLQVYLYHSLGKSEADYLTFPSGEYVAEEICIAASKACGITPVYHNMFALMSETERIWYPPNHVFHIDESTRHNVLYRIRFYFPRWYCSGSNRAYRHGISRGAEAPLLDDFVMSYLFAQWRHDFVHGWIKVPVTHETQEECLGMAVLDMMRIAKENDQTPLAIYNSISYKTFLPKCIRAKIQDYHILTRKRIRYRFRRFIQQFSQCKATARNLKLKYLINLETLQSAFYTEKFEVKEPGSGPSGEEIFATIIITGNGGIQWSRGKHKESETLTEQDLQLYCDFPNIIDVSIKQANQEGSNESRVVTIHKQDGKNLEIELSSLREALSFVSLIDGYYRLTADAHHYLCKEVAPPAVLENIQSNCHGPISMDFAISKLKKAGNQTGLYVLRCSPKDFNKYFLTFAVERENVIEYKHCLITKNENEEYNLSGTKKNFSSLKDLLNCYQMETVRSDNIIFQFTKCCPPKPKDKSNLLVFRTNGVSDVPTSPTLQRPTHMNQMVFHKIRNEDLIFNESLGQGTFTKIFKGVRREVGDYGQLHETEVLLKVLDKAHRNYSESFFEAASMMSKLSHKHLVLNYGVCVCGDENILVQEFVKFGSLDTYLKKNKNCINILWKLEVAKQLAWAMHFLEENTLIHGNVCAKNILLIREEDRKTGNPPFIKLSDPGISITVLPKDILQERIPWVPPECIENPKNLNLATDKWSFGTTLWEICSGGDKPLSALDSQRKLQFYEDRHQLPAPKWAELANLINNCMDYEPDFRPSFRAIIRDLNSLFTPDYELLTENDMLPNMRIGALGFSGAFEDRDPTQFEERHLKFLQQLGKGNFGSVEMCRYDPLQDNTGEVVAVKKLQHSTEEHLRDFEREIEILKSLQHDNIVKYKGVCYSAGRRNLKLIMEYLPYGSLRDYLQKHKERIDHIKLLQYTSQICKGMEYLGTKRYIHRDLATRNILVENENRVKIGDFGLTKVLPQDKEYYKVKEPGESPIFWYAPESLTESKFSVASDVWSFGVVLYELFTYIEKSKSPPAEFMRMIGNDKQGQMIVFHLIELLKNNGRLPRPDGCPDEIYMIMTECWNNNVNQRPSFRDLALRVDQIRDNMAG
EPHB1, sequence (P54762 whole entry, looked up): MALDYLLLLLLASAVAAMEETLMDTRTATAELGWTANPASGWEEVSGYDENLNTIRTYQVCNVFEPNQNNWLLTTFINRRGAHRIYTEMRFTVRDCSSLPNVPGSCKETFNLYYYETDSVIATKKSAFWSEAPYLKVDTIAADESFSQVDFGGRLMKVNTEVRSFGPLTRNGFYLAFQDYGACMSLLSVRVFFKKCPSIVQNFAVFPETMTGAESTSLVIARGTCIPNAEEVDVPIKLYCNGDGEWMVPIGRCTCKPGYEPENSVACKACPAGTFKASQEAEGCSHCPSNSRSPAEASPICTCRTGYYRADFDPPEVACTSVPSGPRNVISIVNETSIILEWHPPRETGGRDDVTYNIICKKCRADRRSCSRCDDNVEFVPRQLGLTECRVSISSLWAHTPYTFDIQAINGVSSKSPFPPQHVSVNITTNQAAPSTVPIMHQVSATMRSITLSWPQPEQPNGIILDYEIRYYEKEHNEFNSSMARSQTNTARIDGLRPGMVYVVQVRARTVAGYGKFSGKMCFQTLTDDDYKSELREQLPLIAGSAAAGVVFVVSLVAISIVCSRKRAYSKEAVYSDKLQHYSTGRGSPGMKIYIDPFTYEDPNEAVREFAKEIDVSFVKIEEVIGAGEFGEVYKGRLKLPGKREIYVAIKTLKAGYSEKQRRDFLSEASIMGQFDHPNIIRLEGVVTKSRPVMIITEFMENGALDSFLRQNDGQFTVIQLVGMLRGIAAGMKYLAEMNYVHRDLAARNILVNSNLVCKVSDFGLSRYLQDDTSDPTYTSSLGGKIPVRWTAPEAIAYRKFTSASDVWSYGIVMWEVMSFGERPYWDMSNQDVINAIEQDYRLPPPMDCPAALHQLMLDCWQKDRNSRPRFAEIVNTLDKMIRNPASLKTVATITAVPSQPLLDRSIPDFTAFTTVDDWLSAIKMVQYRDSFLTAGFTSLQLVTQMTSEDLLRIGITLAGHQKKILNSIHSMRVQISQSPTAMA
Hck, sequence (P08631 whole entry, looked up): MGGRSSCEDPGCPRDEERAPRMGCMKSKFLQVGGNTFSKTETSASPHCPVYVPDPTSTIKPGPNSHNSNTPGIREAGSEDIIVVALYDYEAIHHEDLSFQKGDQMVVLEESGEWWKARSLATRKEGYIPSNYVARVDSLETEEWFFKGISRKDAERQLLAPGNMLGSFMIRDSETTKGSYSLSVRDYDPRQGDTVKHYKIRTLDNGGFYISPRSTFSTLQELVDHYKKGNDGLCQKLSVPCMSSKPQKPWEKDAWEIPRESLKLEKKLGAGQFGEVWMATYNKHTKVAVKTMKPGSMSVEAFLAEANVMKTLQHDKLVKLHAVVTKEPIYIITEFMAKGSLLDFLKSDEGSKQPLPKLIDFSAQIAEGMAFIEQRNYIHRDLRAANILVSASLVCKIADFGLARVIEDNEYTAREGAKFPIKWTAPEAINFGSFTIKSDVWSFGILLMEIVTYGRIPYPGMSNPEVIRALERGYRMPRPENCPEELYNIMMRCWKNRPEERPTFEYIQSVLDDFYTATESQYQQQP
EPHB2, sequence (P29323 whole entry, looked up): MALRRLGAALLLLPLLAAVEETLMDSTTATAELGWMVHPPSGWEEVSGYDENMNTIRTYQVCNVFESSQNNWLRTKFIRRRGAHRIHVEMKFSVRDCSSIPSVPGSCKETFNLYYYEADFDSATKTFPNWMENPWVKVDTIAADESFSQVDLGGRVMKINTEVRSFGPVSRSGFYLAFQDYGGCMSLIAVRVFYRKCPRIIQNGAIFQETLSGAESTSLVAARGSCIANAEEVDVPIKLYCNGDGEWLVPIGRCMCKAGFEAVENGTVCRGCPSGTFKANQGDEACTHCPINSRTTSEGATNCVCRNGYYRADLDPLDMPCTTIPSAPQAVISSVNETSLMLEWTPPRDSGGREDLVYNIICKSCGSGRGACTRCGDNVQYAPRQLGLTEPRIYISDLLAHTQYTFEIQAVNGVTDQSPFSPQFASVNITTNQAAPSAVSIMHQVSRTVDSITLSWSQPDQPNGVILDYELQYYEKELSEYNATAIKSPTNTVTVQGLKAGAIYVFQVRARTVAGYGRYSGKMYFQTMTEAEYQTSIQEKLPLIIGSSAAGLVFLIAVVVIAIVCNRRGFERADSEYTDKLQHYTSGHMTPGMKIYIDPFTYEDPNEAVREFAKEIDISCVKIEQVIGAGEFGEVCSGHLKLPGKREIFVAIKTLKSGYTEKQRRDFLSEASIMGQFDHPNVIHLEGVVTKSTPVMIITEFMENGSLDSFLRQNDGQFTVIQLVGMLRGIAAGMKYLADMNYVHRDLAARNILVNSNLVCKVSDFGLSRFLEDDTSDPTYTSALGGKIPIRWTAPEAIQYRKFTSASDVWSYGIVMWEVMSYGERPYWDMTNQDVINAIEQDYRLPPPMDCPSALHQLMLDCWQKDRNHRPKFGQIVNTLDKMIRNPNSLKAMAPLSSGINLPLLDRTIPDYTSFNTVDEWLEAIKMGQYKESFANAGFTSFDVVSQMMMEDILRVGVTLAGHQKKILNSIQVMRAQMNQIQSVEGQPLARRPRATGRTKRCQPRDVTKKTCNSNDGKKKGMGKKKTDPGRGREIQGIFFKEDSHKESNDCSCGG

| Sequence | phosphorylation enrichment (Fes) | phosphorylation enrichment (Jak2) | phosphorylation enrichment (c-Src) | phosphorylation enrichment (Fyn) | phosphorylation enrichment (FGFR3) | phosphorylation enrichment (c-Abl (mouse)) | phosphorylation enrichment (EPHB1) | phosphorylation enrichment (FGFR1) | phosphorylation enrichment (Hck) | phosphorylation enrichment (AncSZ) | phosphorylation enrichment (EPHB2) | phosphorylation enrichment (MERTK) | phosphorylation enrichment (Fer (mouse)) | SH2 binding enrichment (c-Src SH2) | SH2 binding enrichment (SHP2-C SH2) | SH2 binding enrichment (Grb2 SH2) |
| --- | --- | --- | --- | --- | --- | --- | --- | --- | --- | --- | --- | --- | --- | --- | --- | --- |
| PLLLSYFLIKW [NUP160_Y773_YF] | 1.8 | 3.01 | 0.684 | 0.561 | 1.73 | 1.33 | 0.909 | 1.53 | 0.761 | 1.37 | 0.622 | 0.558 | 0.37 | 0.662 | 1.04 | 1.13 |
| DEDYLCREELA [POR_Y575_Y575C] | 1.54 | 0.929 | 0.556 | 0.878 | 1.43 | 0.737 | 0.842 | 0.683 | 0.99 | 1.68 | 0.725 | 0.676 | 0.812 | 0.444 | 0.917 | 0.948 |
| KPGLKYVTYGN [GALNTL5_Y404] | 0.547 | 0.498 | 0.363 | 0.39 | 0.409 | 0.389 | 0.38 | 0.394 | 0.484 | 0.505 | 0.624 | 0.345 | 0.379 | 1.11 | 2.11 | 1.34 |
| SGDITYGQFAQ [PLCG1_Y210] | 0.632 | 0.796 | 5.78 | 8.52 | 0.422 | 0.495 | 0.47 | 0.426 | 4.63 | 0.596 | 0.4 | 0.362 | 0.387 | 0.53 | 0.557 | 0.716 |
| DELDKYSEVLK [TPM1_Y60_A63V] | 1.66 | 1.37 | 0.62 | 0.599 | 0.923 | 0.907 | 0.667 | 0.616 | 0.558 | 1.49 | 0.603 | 0.48 | 0.624 | 1.72 | 0.665 | 0.837 |
| ENAGFYFRISA | 1.42 | 1.55 | 0.492 | 0.44 | 0.844 | 1 | 0.587 | 0.467 | 0.492 | 1.32 | 0.73 | 0.36 | 0.674 | 0.669 | 0.566 | 0.729 |
| MSLDQYSPSFP [FGFR1_Y776_P772S] | 0.782 | 0.929 | 0.454 | 0.551 | 0.549 | 0.598 | 0.374 | 0.468 | 0.481 | 0.68 | 0.465 | 0.44 | 0.429 | 0.45 | 0.646 | 0.825 |
| NTGNFYDLFGG [PTPN11_Y63_D61N_YF] | 0.955 | 0.796 | 4.88 | 6.58 | 0.641 | 0.766 | 0.436 | 0.537 | 4.7 | 0.844 | 0.548 | 7.84 | 3.08 | 0.887 | 0.833 | 1.19 |
